Data from patent publication US20220042996A1, “COMPOSITIONS AND METHODS RELATED TO LATROPHILINS AS BIOMARKERS FOR HAEMATOPOIETIC CELL CANCER” (priority 2015, published 2022).
“Also recorded” adds a separate entry of the source.

Assays:
Format in all cases: cell-based
[1] = system: primary healthy human leukocytes; assay: Latrophilin protein expression by Western blot in primary healthy human leukocytes; conditions: primary leucocytes from healthy donors, 4 or 24 h exposure
Experimental: Primary AML-PB001F cells were exposed for 4 h (A) and healthy human leukocytes for 4 h (B) or 24 h (C) to indicated concentrations of LPS, SCF and anti-Tim-3. Following cell lysis, latrophilin protein levels were analysed by Western blot. Phospho-S2448 mTOR was measured by ELISA. Furthermore, non-treated THP-1 cells, primary human AML cells and primary healthy human leukocytes, as well as those stimulated for 24 h with 1 μg/ml LPS were subjected to quantitative real time polymerase chain reaction qRT-PCR (D). Images show one representative result of at least four experiments, which gave similar results. Data are mean values±SD (n=4). *-p<0.05; **-p<0.01.
Levels of LPHN 1 and LPHN 2, total and phospho-T389 p70 S6K1 were determined by Western blot analysis and compared to β-actin in order to determine equal protein loading, as described by Yasinska I. M. et al (Cell. Mol. Life Sci. (2014) 71 699-710). Li-Cor goat secondary antibodies, conjugated with fluorescent dyes, were used according to the manufacturer's protocol to visualise the proteins of interest using a Li-Cor Odyssey imaging system. Western blot data were analysed quantitatively using Odyssey software and values were normalised against respective β-actin bands. […]

[2] = system: AML-PB001F primary human AML cells; assay: LPHN1/2 protein levels by Western blot in primary human AML cells; conditions: 4 h, 1 μg/ml LPS, 0.1 μg/ml SCF or 2 μg/ml anti-Tim-3 antibody
Experimental: Levels of LPHN 1 and LPHN 2, total and phospho-T389 p70 S6K1 were determined by Western blot analysis and compared to β-actin in order to determine equal protein loading, as described by Yasinska I. M. et al (Cell. Mol. Life Sci. (2014) 71 699-710). Li-Cor goat secondary antibodies, conjugated with fluorescent dyes, were used according to the manufacturer's protocol to visualise the proteins of interest using a Li-Cor Odyssey imaging system. Western blot data were analysed quantitatively using Odyssey software and values were normalised against respective β-actin bands.
(§1) Primary human AML mononuclear cells (AML-PB001 F, newly diagnosed/untreated) were purchased from AllCells (Alameda, Calif., USA) and handled in accordance with manufacturer's instructions.
(§2) To analyse LPHN1/2 expression levels in AML-PB001F cells, the cells were exposed to mTOR activators (1 μg/ml LPS, 0.1 μg/ml SCF or 2 μg/ml anti-Tim-3 antibody) for 4 h.

[3] = system: mTOR; assay: Phospho-S2448 mTOR ELISA in primary human AML cells; conditions: AML-PB001F cells; for mTOR activation: 24 h
Experimental: Phosphorylation of mTOR was monitored using ELISA assays as recently described (Yasinska I. M. et al (supra); Abooali M. et al (2014) Sci. Rep. 4 6307; Prokhorov A. et al (supra)). Briefly, ELISA plates were coated with mouse anti-mTOR antibodies and blocked with 2% BSA. Cell lysates were then added to the wells and kept at room temperature for at least 2 h (under constant agitation). After extensive washing with TBST buffer (Tris-Buffered Saline and Tween 20), […] mTOR antibody was added and plates were incubated for at least 2 h at room temperature with constant agitation. Plates were then washed with TBST buffer and incubated with 1:1000 Horse Radish Peroxidase-labelled goat anti-rabbit IgG in TBST buffer. After extensive washing with TBST, bound secondary antibodies were then detected by the peroxidase reaction (ortho-phenylenediamine/H2O2).
as §1
(§3) Experiments were carried out to ascertain whether or not LPHN 1 and LPHN 2 are expressed and function in primary human AML cells. AML-PB001 F primary human mononuclear blasts were used and exposed for 24 h to 1 μg/ml LPS, 500 pM LTX or a combination of these ligands.
as §2

[4] = system: THP-1 human AML cells; assay: IL-6 release by ELISA in THP-1 cells; conditions: 24 h, 500 pM LTX in combination with 1 μg/ml LPS
Experimental: (§4) THP-1 and U937 human leukaemia monocytic macrophages were obtained from the European Collection of Cell Cultures (Salisbury, UK). Cells were cultured in RPMI 1640 media supplemented with 10% foetal calf serum, penicillin (50 IU/ml) and streptomycin sulphate (50 μg/ml).
(§5) Concentrations of IL-6 released into the cell culture media were analysed by ELISA (R&D Systems assay kit) according to the manufacturers protocol.
(§6) Expression of LPHN 1 and LPHN 2 in human AML cell lines—U937 and THP-1—was investigated. Cells were stimulated for 24 h with 1 μg/ml LPS, 500 pM LTX or a combination of these ligands. LPS is a pathogen-associated molecular pattern shared by Gram-negative bacteria and is recognised by the Toll-like receptor 4 (TLR4), which is highly expressed by human myeloid cells. Importantly, LPS was chosen because TLR4 may be targeted by endogenous ligands (like proteins released by dysfunctional mitochondria) to promote expression/release of IL-6 and other important cytokines/growth factors required for leukaemia cell survival.

[5] = system: AML-PB001F primary human AML cells; assay: IL-6 release by ELISA in primary human AML cells; conditions: 24 h
Experimental: as §5, §1, §3

[6] = system: U937 human AML cells; assay: IL-6 release by ELISA in U937 cells; conditions: 24 h, 500 pM LTX in combination with 1 μg/ml LPS
Experimental: as §4, §5, §6

[7] = 500 pM LTX in combination with 1 μg/ml LPS
[8] = 1 μg/ml LPS alone or 500 pM LTX alone

Molecule: SCF: Human Stem Cell Factor protein produced in E. coli; binds Kit (CD117)
- latrophilin expression [1]: not inducible
- LPHN1/2 expression [2]: significantly up-regulated
- LPHN2 expression [2]: significantly up-regulated
- phosphorylation of S2448 in mTOR (mTOR activation) ([3]; 4 h, 1 μg/ml LPS, 0.1 μg/ml SCF or 2 μg/ml anti-Tim-3 antibody): significantly increased; also recorded: strongest effect

B1: LTX (protein)
chain: EGEDLTLEEKAEICSELELQQKYVDIASNIIGDLSSLPIAGKIAGTIAAAAMTATHVASGRLDIEQTLLGCSDLPFDQIKEVLENRFNEIDRKLDSHSAALEEITKLVEKSISVVEKTRKQMNKRFDEVMKSIQDAKVSPIISKINNFARYFDTEKERIRGLKLNDYILKLEEPNGILLHFKESRTPTDDSLQAPLFSIIEEGYAVPKSIDDELAFKVLYALLYGTQTYVSVMFFLLEQYSFLANHYYEKGYLEKYDEYFNSLNNVFLDFKSSLVGTGTSNNEGLLDRVLQVLMTVKNSEFLGLEKNGVDEMLNEKINLFNKIKEEIEGKQKMTLSETPENFAQISFDKDITTPIGDWRDGREVRYAVQYASETLFSKISHWSDPVSVREKACPTLRMPVDQTRRNVLVFRKFDSSKPQLVGEITPYLSNFIDIDRDLYNAASNPDSAVGFKEFTKLNYDGANIRATFDHGRTVFHAAAKSGNDKIMFGLTFLAKSTELNQPDKKGYTPIHVAADSGNAGIVNLLIQRGVSINSKTYHFLQTPLHLAAQRGFVTTFQRLMESPEININERDKDGFTPLHYAIRGGERILEAFLNQISIDVNAKSNTGLTPFHLAIIKNDWPVASTLLGSKKVDINAVDENNITALHYAAILGYLETTKQLINLKEINANVVSSPGLLSALHYAILYKHDDVASFLMRSSNVNVNLKALGGITPLHLAVIQGRKQILSLMFDIGVNIEQKTDEKYTPLHLAAMSKYPELIQILLDQGSNFEAKTNSGATPLHLATFKGKSQAALILLNNEVNWRDTDENGQMPIHGAAMTGLLDVAQAIISIDATVVDIEDKNSDTPLNLAAQNSHIDVIKYFIDQGADINTRNKKGLAPLLAFSKKGNLDMVKYLFDKNANVYIADNDGMNFFYYAVQNGHLNIVKYAMSEKDKFEWSNTDNNRRDECPNEECAISHFAVCDAVQFDRIEIVKYFVGTLGNFAICGPLHQAARYGHLDIVKYLVEEEFLSVDGSKTDTPLCYASENGHFTVVQYLVSNGAKVNHDCGNGMTAIDKAITKNHLQVVQFLAANGVDFRRKNSRGTTPFLTAVAENALHIAEYLIREKRQDININEQNVDKDTALHLAVYYKNLQMIKLLIKYGIDVTIRNAYDKTALDIAIDAKFSNIVEYLKTKSGKFRR
- LPS-induced IL-6 exocytosis [4]: highly up-regulated
- IL-6 exocytosis [5, 7]: significantly up-regulated
- IL-6 release [5, 8]: did not influence
- mTOR activation [3, 7]: significantly up-regulated
- mTOR activation [3, 8]: did not influence
- LPS-induced IL-6 exocytosis [6]: highly up-regulated
